Measurements: patent US20230059341A1 (TESARO, published 2023)

B1: Dostarlimab, H2O2 treated, T0 (exposed to H2O2, no incubation) (antibody, human IgG4 S228P, kappa)
heavy: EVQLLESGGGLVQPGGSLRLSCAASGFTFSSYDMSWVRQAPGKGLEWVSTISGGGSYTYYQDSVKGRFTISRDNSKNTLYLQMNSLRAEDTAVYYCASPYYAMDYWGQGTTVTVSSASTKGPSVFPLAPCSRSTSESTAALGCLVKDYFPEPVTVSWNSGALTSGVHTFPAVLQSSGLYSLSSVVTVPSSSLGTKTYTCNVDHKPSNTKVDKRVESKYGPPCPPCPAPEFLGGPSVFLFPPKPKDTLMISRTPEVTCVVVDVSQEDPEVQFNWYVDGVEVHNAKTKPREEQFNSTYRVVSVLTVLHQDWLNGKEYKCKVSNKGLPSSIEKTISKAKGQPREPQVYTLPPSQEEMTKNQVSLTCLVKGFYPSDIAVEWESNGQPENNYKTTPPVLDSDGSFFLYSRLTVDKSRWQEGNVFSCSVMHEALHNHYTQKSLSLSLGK
light: DIQLTQSPSFLSAYVGDRVTITCKASQDVGTAVAWYQQKPGKAPKLLIYWASTLHTGVPSRFSGSGSGTEFTLTISSLQPEDFATYYCQHYSSYPWTFGQGTKLEIKRTVAAPSVFIFPPSDEQLKSGTASVVCLLNNFYPREAKVQWKVDNALQSGNSQESVTEQDSKDSTYSLSSTLTLSKADYEKHKVYACEVTHQGLSSPVTKSFNRGEC
modifications: percent of population: Asn 137 deamidation 1.3; percent of population: Met 103 oxidation 1.2; Met 248 oxidation 47.1; Asn 311 deamidation 6.8; Met 354 oxidation 16.7; Asn 380 deamidation 10.7; Asn 385 deamidation 1.7; Met 424 oxidation 29.0; Lys 443 clipped 97.2
notes: 0.1% (v:v) H2O2, quenched at once with methionine; also called H2O2 T0; Peroxide (H2O2) Oxidation
B2: Dostarlimab, Unstressed Control (antibody, human IgG4 S228P, kappa)
heavy: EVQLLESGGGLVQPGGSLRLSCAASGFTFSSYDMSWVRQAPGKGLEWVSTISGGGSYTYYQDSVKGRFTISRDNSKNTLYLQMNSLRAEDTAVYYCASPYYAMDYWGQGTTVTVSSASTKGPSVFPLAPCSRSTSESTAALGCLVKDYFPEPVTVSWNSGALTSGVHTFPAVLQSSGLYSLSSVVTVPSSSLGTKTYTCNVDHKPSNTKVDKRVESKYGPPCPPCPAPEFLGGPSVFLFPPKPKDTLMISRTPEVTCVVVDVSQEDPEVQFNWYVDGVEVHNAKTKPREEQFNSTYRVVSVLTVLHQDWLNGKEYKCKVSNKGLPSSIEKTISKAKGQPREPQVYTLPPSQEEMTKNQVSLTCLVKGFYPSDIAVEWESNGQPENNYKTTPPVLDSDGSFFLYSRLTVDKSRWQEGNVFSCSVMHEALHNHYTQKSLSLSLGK
light: B1 light
modifications: percent of population: Met 248 oxidation 3.0; Asp 261/266/276 isomerization 1.0; Asn 311 deamidation 6.0; Asn 380 deamidation 8.4; Asn 430 deamidation 1.2; Lys 443 clipped 97.8
notes: Control of the forced degradation study (DS batch #1); HMW 0.9%
B3: Dostarlimab, AAPH treated, 40° C., 3 days (antibody, human IgG4 S228P, kappa)
heavy: not shown
light: B1 light
modifications: percent of population: Trp 50 oxidation 74.2; percent of population: Met 103 oxidation 7.0; Met 248 oxidation 88.4; Asp 261/266/276 isomerization 1.0; Asn 311 deamidation 6.6; Met 354 oxidation 44.8; Asn 380 deamidation 9.6; Asn 385 deamidation 1.2; Met 424 oxidation 78.2; Lys 443 clipped 97.7
notes: 5 mM AAPH; HMW 11.8%; also called AAPH, 40° C., 3 days
B4: Dostarlimab, AAPH treated, 40° C., 1 day (antibody, human IgG4 S228P, kappa)
heavy: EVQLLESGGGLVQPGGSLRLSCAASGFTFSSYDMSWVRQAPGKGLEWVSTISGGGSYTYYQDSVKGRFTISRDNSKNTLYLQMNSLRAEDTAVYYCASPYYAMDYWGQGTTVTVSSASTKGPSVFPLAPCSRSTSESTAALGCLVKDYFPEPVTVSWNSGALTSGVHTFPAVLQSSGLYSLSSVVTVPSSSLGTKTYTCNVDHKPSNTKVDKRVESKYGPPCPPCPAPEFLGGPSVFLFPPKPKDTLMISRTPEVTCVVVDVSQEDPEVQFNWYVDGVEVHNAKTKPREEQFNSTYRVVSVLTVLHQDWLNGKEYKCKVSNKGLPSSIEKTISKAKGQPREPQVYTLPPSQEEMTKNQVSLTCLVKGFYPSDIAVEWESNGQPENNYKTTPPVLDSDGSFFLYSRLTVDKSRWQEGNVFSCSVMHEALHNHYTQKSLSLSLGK
light: B1 light
modifications: percent of population: Trp 50 oxidation 38.9; Asn 137 deamidation 1.2; percent of population: Met 103 oxidation 2.5; Met 248 oxidation 47.7; Asn 311 deamidation 6.5; Met 354 oxidation 8.2; Asn 380 deamidation 8.6; Asn 385 deamidation 1.3; Met 424 oxidation 26.2; Asn 430 deamidation 1.1; Lys 443 clipped 96.7
notes: 5 mM AAPH; HMW 4.9%; also called AAPH, 40° C., 1 day; AAPH Day 1
B5: Dostarlimab, AAPH treated, T0 (exposed to AAPH, no incubation) (antibody, human IgG4 S228P, kappa)
heavy: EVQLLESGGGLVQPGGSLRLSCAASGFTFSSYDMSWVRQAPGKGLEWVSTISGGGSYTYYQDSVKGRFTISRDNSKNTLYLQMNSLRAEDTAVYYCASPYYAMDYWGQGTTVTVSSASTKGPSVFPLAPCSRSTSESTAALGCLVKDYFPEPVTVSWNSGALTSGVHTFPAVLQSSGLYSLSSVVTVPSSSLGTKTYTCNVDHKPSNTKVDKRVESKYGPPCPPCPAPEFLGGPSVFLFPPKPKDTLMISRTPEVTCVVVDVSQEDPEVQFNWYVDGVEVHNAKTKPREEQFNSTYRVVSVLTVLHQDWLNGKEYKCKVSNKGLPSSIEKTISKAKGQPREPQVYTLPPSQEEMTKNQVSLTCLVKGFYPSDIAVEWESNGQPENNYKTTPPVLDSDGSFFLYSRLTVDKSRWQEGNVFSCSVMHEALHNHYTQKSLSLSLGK
light: B1 light
modifications: percent of population: Asn 137 deamidation 1.0; percent of population: Met 248 oxidation 3.3; Asp 261/266/276 isomerization 1.0; Asn 311 deamidation 6.3; Asn 380 deamidation 9.5; Asn 385 deamidation 1.0; Asn 430 deamidation 1.3; Lys 443 clipped 97.8
notes: 5 mM AAPH, quenched at once with methionine; also called AAPH T0; AAPH Oxidation
B6: Dostarlimab, AAPH treated, 40° C., 7 days (antibody, human IgG4 S228P, kappa)
heavy: not shown
light: B1 light
modifications: PTM levels of this sample are not tabulated
notes: 5 mM AAPH; HMW 18.7%; also called AAPH, 40° C., 7 days
B7: Dostarlimab, AAPH treated, 40° C., 5 days (antibody, human IgG4 S228P, kappa, V domains shown)
VH: EVQLLESGGGLVQPGGSLRLSCAASGFTFSSYDMSWVRQAPGKGLEWVSTISGGGSYTYYQDSVKGRFTISRDNSKNTLYLQMNSLRAEDTAVYYCASPYYAMDYWGQGTTVTVSS
VL: DIQLTQSPSFLSAYVGDRVTITCKASQDVGTAVAWYQQKPGKAPKLLIYWASTLHTGVPSRFSGSGSGTEFTLTISSLQPEDFATYYCQHYSSYPWTFGQGTKLEIKR
modifications: percent of population: Trp 50 oxidation 86.8; PTM levels of this sample are not tabulated
notes: 5 mM AAPH; HMW 16.4%; also called AAPH, 40° C., 5 days
B8: Dostarlimab, photo degraded, Vis light, 25° C., 1 week and UV light, 25° C., 1 week (antibody, human IgG4 S228P, kappa)
heavy: not shown
light: B1 light
modifications: percent of population: Trp 50 oxidation 4.8; percent of population: Met 248 oxidation 33.4; Asp 261/266/276 isomerization 1.0; Asn 311 deamidation 6.4; Met 354 oxidation 10.9; Asn 380 deamidation 9.5; Asn 385 deamidation 1.3; Met 424 oxidation 27.0; Asn 430 deamidation 1.2; Lys 443 clipped 97.8
notes: Mixture; HMW 3.3%; also called Photolysis
B9: Dostarlimab reference material (antibody, human IgG4 S228P, kappa)
heavy: not shown
light: B1 light
B10: Dostarlimab (antibody, human IgG4 S228P, kappa)
heavy: not shown
light: B1 light
modifications: N-glycan at Asn 293 (99% occupancy)
notes: also called dostarlimab drug substance (DS); anti-PD-1 antibody
B11: Dostarlimab, H2O2 treated, 25° C., 2 weeks (antibody, human IgG4 S228P, kappa)
heavy: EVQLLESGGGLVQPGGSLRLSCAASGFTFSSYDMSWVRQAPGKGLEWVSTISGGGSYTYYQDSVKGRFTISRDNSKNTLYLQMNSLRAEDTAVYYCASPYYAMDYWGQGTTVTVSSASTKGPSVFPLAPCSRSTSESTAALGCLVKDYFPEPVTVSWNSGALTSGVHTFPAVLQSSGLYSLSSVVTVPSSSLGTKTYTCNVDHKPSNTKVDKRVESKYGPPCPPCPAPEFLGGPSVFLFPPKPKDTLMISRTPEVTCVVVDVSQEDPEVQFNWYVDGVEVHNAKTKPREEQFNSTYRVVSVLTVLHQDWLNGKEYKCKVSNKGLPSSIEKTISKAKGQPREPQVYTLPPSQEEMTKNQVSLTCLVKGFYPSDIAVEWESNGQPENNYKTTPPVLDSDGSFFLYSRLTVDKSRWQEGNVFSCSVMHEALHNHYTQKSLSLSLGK
light: B1 light
modifications: percent of population: Trp 50 oxidation 1.3; Asn 137 deamidation 1.3; percent of population: Met 34 oxidation 28.8; Met 83 oxidation 1.1; Met 103 oxidation 86.1; Met 248 oxidation 99.6; Asn 311 deamidation 7.4; Met 354 oxidation 99.8; Asn 380 deamidation 10.5; Asn 385 deamidation 1.9; Met 424 oxidation 98.1; Lys 443 clipped 97.7
notes: 0.1% (v:v) H2O2; also called H2O2, 25° C., 2 weeks
B12: Dostarlimab, thermally degraded, 40° C., 3 weeks (antibody, human IgG4 S228P, kappa)
heavy: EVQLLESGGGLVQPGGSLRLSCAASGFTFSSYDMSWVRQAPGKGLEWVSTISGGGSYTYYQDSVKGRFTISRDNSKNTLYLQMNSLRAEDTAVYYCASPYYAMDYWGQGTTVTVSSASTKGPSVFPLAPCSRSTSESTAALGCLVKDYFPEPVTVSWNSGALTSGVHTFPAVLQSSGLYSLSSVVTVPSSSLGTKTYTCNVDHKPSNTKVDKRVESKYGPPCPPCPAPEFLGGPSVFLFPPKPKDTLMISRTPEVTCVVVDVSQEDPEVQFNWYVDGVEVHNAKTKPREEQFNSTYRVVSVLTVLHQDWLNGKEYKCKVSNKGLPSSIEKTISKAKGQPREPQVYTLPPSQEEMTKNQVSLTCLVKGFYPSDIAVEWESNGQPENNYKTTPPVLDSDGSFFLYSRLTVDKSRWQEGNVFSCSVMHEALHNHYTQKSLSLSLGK
light: B1 light
modifications: percent of population: Asp 151/167 isomerization 1.1; percent of population: Met 248 oxidation 5.4; Asp 261/266/276 isomerization 2.8; Asn 311 deamidation 6.5; Met 354 oxidation 1.9; Asn 380 deamidation 10.0; Asn 385 deamidation 2.1; Met 424 oxidation 1.7; Asn 430 deamidation 1.2; Lys 443 clipped 97.8
notes: Mixture; HMW 1.4%, acidic peaks 33.8%
B13: Dostarlimab, thermally degraded, 50° C., 3 weeks (antibody, human IgG4 S228P, kappa)
heavy: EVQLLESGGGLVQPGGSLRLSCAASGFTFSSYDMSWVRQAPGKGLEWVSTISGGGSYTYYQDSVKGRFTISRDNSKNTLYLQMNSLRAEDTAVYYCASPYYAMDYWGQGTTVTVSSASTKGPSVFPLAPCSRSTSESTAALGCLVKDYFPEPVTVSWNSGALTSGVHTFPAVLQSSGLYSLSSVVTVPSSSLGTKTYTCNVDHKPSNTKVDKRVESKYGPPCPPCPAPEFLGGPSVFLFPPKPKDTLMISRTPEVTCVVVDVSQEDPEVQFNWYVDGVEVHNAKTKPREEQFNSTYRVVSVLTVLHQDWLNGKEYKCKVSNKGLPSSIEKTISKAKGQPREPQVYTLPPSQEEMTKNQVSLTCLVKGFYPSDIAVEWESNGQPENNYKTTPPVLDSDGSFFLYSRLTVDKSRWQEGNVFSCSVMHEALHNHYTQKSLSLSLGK
light: B1 light
modifications: percent of population: Asp 151/167 isomerization 2.5; percent of population: Met 248 oxidation 7.6; Asp 261/266/276 isomerization 13.1; Asn 311 deamidation 7.4; Met 354 oxidation 4.2; Asn 380 deamidation 14.7; Asn 385 deamidation 5.9; Asp 395/397/409 isomerization 2.2; Met 424 oxidation 3.5; Asn 430 deamidation 2.0; Lys 443 clipped 97.8
notes: Mixture; HMW 11.2%, acidic peaks 59.1%; also called Thermal Degradation
B14: Dostarlimab, H2O2 treated, 25° C., 1 week (antibody, human IgG4 S228P, kappa, V domains shown)
VH: B7 VH
VL: B7 VL
modifications: percent of population: Asn 137 deamidation 1.3; percent of population: Met 34 oxidation 14.0; Met 103 oxidation 64.9; Met 248 oxidation 98.6; Asn 311 deamidation 7.0; Met 354 oxidation 99.8; Asn 380 deamidation 10.9; Asn 385 deamidation 1.8; Met 424 oxidation 98.0; Lys 443 clipped 98.0
notes: 0.1% (v:v) H2O2; also called H2O2, 25° C., 1 week
B15: Dostarlimab, acid degraded, T0 (exposed to pH 4.0, no incubation) (antibody, human IgG4 S228P, kappa)
heavy: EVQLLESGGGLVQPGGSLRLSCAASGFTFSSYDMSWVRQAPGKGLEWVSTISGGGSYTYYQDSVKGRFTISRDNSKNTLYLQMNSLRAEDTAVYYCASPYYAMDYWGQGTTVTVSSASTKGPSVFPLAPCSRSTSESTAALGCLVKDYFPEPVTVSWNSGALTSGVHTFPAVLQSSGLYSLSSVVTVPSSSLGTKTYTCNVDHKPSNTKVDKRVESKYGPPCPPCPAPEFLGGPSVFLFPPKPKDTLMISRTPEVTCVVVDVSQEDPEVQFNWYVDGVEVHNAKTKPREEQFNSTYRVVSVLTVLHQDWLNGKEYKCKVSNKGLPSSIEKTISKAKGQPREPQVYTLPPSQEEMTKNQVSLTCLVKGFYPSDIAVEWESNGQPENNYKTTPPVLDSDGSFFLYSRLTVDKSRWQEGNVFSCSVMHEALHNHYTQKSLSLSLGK
light: B1 light
modifications: percent of population: Asn 137 deamidation 1.2; percent of population: Met 248 oxidation 3.8; Asn 311 deamidation 7.1; Asn 380 deamidation 10.1; Asn 385 deamidation 1.5; Lys 443 clipped 97.1
notes: Mixture; HMW 13.4%, basic peaks 13.6%
B16: Dostarlimab, acid degraded, pH 4.0, 25° C., 3 weeks (antibody, human IgG4 S228P, kappa)
heavy: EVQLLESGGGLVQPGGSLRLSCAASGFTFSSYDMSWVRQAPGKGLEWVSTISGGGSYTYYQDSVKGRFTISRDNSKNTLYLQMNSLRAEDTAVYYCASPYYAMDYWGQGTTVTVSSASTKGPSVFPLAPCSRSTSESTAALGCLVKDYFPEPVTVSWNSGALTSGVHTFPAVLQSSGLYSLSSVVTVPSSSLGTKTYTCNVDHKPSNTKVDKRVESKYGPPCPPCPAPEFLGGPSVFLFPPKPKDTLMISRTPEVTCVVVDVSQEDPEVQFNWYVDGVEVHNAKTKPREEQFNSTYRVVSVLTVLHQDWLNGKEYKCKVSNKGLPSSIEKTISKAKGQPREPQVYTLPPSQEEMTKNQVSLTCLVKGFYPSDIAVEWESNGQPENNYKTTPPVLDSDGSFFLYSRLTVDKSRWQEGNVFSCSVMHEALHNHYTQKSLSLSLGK
light: B1 light
modifications: percent of population: Asn 137 deamidation 1.2; percent of population: Met 248 oxidation 3.1; Asp 261/266/276 isomerization 3.0; Asn 311 deamidation 7.2; Asn 380 deamidation 9.7; Asn 385 deamidation 1.8; Asp 395/397/409 isomerization 2.7; Asn 430 deamidation 1.0; Lys 443 clipped 97.0
notes: Mixture; HMW 15.2%, basic peaks 34.1%; also called Acid Hydrolysis
B17: Dostarlimab, sustained agitation, 300 rpm, 25° C., 3 weeks (antibody, human IgG4 S228P, kappa, V domains shown)
VH: B7 VH
VL: B7 VL
modifications: all PTM levels within analytical variability of the control
B18: Dostarlimab, base degraded, T0 (exposed to pH 9.0, no incubation) (antibody, human IgG4 S228P, kappa)
heavy: not shown
light: B1 light
modifications: percent of population: Asn 137 deamidation 1.3; percent of population: Met 248 oxidation 2.8; Asn 311 deamidation 6.8; Asn 380 deamidation 10.8; Asn 385 deamidation 1.8; Lys 443 clipped 96.9
notes: Mixture; HMW 8.1%, acidic peaks 27.2%

biological target: T1, Neonatal Fc Receptor (FcRn) (UniProt P55899 24-297; P61769 21-119, limits assumed); experiment: FcRn binding assay, BIACORE (SPR); T0 (exposed to H2O2, no incubation)
T1 sequence (P55899 24-297 limits assumed, chain 1 of 2): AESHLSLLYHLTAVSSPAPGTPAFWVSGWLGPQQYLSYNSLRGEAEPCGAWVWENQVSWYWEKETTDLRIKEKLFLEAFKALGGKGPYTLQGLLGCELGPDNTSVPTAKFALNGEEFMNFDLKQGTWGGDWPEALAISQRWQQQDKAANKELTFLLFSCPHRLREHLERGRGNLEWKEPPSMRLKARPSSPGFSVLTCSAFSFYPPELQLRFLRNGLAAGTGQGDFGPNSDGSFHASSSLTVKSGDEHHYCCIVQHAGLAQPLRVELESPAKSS
T1 sequence (P61769 21-119 limits assumed, chain 2 of 2): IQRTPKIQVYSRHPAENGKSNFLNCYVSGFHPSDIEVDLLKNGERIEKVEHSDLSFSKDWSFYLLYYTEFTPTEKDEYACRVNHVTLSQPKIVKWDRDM

| Binder | Kd [µM] |
| --- | --- |
| B1 | 4.38 |

biological target: T2, PD-1 protein constitutively expressed on engineered CHO K1 cells (UniProt Q15116 25-288, limits assumed); experiment: MSD potency assay: competitive binding on CHO K1 cells expressing PD-1, inhibition of PD-L1-mFc binding, ECL; percent of reference material
T2 construct: whole, on cells; also called programmed cell death protein 1
T2 sequence (Q15116 25-288 limits assumed, change not shown): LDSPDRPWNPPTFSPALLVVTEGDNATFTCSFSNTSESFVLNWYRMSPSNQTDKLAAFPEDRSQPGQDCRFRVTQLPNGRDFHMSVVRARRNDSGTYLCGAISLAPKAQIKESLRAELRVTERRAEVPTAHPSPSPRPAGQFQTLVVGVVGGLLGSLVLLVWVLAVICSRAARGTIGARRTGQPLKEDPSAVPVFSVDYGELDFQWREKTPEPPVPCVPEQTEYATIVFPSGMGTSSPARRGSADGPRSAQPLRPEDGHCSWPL
Method: (§1) The Meso Scale Discovery (MSD) potency assay employs engineered CHO K1 cells constitutively expressing the PD-1 protein. […] The readout is measured using a specific detection antibody mixture that releases an electrochemiluminescence (ECL) signal that can be quantified.

| Binder | Relative Potency, MSD Binding [%] |
| --- | --- |
| B2 | 88 |
| B3 | 57 |
| B4 | 76 |
| B5 | 79 |
| B6 | 43 |
| B7 | 47 |

biological target: T1, Neonatal Fc Receptor (FcRn); experiment: FcRn binding assay, BIACORE (SPR)

| Binder | Kd [nM] |
| --- | --- |
| B2 | 2140 |
| B8 | 2490 |

biological target: T1, Neonatal Fc Receptor (FcRn); experiment: BIACORE (SPR), antibody immobilized on sensor chip, FcRn injected as analyte
Method: FcRn binding was assessed via BIACORE analysis. […] Various concentrations of analyte (FcRn) were injected for analysis of the association and dissociation properties.

| Binder | Kd [nM] |
| --- | --- |
| B9 | 1690 |
| B10 | 1750 |

biological target: T3, human PD-1 on PD-1 effector cells (Jurkat T cells, Promega #J1155) (human, UniProt Q15116 25-288); experiment: cell-based or functional assay
T3 sequence (Q15116 25-288): as the sequence (Q15116 25-288 limits assumed, change not shown) above

| Binder | Relative Potency, Cell-Based Bioassay [%] |
| --- | --- |
| B2 | 98 |
| B1 | 94 |
| B11 | 47 |

biological target: T2, PD-1 protein constitutively expressed …; experiment: MSD potency assay: competitive binding on CHO K1 cells expressing PD-1, inhibition of PD-L1-mFc binding, ECL; percent of reference material; remark: another data set of the same source
Method: as §1

| Binder | Relative Potency, MSD Binding [%] |
| --- | --- |
| B2 | 88 |
| B12 | 88 |
| B13 | 76 |

biological target: T3, human PD-1 on PD-1 effector cells …; experiment: cell-based or functional assay; remark: another data set of the same source

| Binder | Relative Potency, Cell-Based Bioassay [%] |
| --- | --- |
| B2 | 98 |
| B3 | 14 |
| B4 | 44 |
| B5 | 102 |
| B7 | 5 |

biological target: T2, PD-1 protein constitutively expressed …; experiment: MSD potency assay: competitive binding on CHO K1 cells expressing PD-1, inhibition of PD-L1-mFc binding, ECL; percent of reference material; remark: another data set of the same source
Method: as §1

| Binder | Relative Potency, MSD Binding [%] |
| --- | --- |
| B2 | 88 |
| B1 | 95 |
| B11 | 74 |
| B14 | 79 |

biological target: T2, PD-1 protein constitutively expressed …; experiment: as above; remark: another data set of the same source
Method: as §1

| Binder | Relative Potency, MSD Binding [%] |
| --- | --- |
| B2 | 88 |
| B15 | 99 |
| B16 | 88 |

biological target: T1, Neonatal Fc Receptor (FcRn); experiment: FcRn binding assay, BIACORE (SPR); remark: another data set of the same source

| Binder | Kd [µM] |
| --- | --- |
| B2 | 2.14 |
| B11 | 12.4 |

biological target: T3, human PD-1 on PD-1 effector cells …; experiment: cell-based or functional assay; remark: another data set of the same source

| Binder | Relative Potency (Potency by cell-based bioassay) [%] |
| --- | --- |
| B2 | 98 |
| B1 | 94 |
| B13 | 86 |
| B16 | 125 |
| B8 | 90 |
| B5 | 102 |
| B17 | 86 |

biological target: T1, Neonatal Fc Receptor (FcRn); experiment: FcRn binding assay, BIACORE (SPR); remark: another data set of the same source

| Binder | Kd [nM] |
| --- | --- |
| B2 | 2140 |
| B15 | 2060 |
| B16 | 1980 |

biological target: T1, Neonatal Fc Receptor (FcRn); experiment: FcRn binding assay, BIACORE (SPR); remark: another data set of the same source

| Binder | Kd [nM] |
| --- | --- |
| B2 | 2140 |
| B12 | 2250 |
| B13 | 2290 |

biological target: T1, Neonatal Fc Receptor (FcRn); experiment: FcRn binding assay, BIACORE (SPR); remark: another data set of the same source

| Binder | Kd [nM] |
| --- | --- |
| B2 | 2140 |
| B3 | 8330 |
| B4 | 2340 |
| B5 | 1660 |
| B6 | 9690 |

biological target: T3, human PD-1 on PD-1 effector cells …; experiment: cell-based or functional assay; remark: another data set of the same source

| Binder | Relative Potency, Cell-Based Bioassay [%] |
| --- | --- |
| B2 | 98 |
| B12 | 94 |
| B13 | 86 |

biological target: T1, Neonatal Fc Receptor (FcRn); experiment: FcRn binding assay, BIACORE (SPR); remark: another data set of the same source

| Binder | Kd [nM] |
| --- | --- |
| B2 | 2140 |
| B18 | 2260 |

biological target: T3, human PD-1 on PD-1 effector cells …; experiment: cell-based or functional assay; remark: another data set of the same source

| Binder | Relative Potency, Cell-Based Bioassay [%] |
| --- | --- |
| B2 | 98 |
| B15 | 109 |
| B16 | 125 |
